Measurements published in the DeepSol protein solubility set.

assay: soluble on expression in E. coli; label from the status in PepcDB or PDB records

Sequence	soluble on expression in E. coli
MNIDTRIKFRHLVCFLEVARQGSLARASDALAISQPALSKSLKELETLLATTLFVRSKSGAALTDAGVAFMRFAGPSVQALRDGVSSLRSGEHETVTARLGVLSTAESLLVPEVVKRLHTRHPALIVSVMTGPSAYLLSQLRVGELDLVVGRMTDSPQIQGLTFEHLYHESMTLVVRNDHPLLAAPLKRESLEQFPLVLPLAGTTIRKFADSLFVQCGIQMPRQRLETLSLTLSRRYVQCSNAIWIAPLDAVLLELKGGTLVELDMGIREPGGSVGLCSNPALPLTRAAQWCVDELRTVGAAYREGQYA	not soluble
MSLDEIKSGKYKHGDKLPTEKELMERFNASRETVRKALERLVVKNLVIRKPGLGTFVNIEKKNKVVGILVQQITSYIFPYIALGAEEVLFANGYKMLLGNASEDPHKERQIINEWLEVGVDGLIIDPVYSATKRSNRDLIEDMAKKGTKVVLVHTNWDIEGVGSVVLDDWYGGEKAAEIFYQYGHRNVAVLYKTIHLPSVVRAQAFLKRGRELGFEKVHEKSFHVSEFTGIVMQSAFELLSLPKDQRPTAVFCYNDATALQFFLAAKRMGLKIPEDVSVIGFDDAPIGDFREILTTFEHPKEEVGKKAVEILLKMIDGEKPEKYVFKPKLIMRESVTYPKEGHHHHHH	soluble
MLFIAFAPFGAFALEANSKNDGYSLDDIKYYKIFENEDIPKIMYALRQGDFEIIAELKNEWEIEEEDVSFEYTTSKNPLGELIRDNLYELGQKYEVFEDESDFVSKMNVWATAFTKSMMKKSSEQKDKLIVQTVNALDNLDETLNLFSERLREWYSLYFPEMDNIVKKHDIYVSLVSEYGDREEYTRTKLKKTMPSNVARTISLAAKESMGADVSEFDLKIMKNLADEIKSMYEYRESLQEYLETSMNEIAPNLTKVAGASLGARLISLAGGIERLLRLPASTIQVIGAEKALFAHLRERALPPKHGVIFQHPLIQGSPWWIHGKIARAISCKISIAIRADAFGNDISDMLIEDMNKKVAEIKEKFPEPTRKRRPRPDTRSFGNKGGQDRDRRSQGDRKPSGNRGDSKKGGKPFGKKPAGKDDRRDNRKGDRKPFGGKPKNSGNQPPKERSGEKRRDSTKKVKAERKVIGKTSSQNLEHHHHHH	soluble
GPGSMKAQPKQIGCYLVTEASREESFVVLEGHEVDNPNRHVRAKALLEDRAAPENISVRIGIEENLLGRSVAYPRARCRALEQEEGKSVRASNDSLAELWRARPL	soluble
MALNGAEVDDFSWEPPTEAETKVLQARRERQDRISRLMGDYLLRGYRMLGETCADCGTILLQDKQRKIYCVACQELDSDVDKDNPALNAQAALSQAREHQLASASELPLGSRPAPQPPVPRPEHCEGAAAGLKAAQGPPAPAVPPNTDVMACTQTALLQKLTWASAELGSSTSLETSIQLCGLIRACAEALRSLQQLQHLEHHHHHH	not soluble
MFIESRELVMKHRIPVAKTERYWKGLEEGKVFKTVCKSCGKEHHPPRAECLCGGEVEWVEITGEGVVEAFTTVHTIPAGFEWHREPYTIAIARFGEVRVMGWAKEVRVGDVVRLKPGKDETGVWKVYFEVV	not soluble
MKIAVLGATGRAGSAIVAEARRRGHEVLAVVRDPQKAADRLGATVATLVKEPLVLTEADLDSVDAVVDALSVPWGSGRGYLHLDFATHLVSLLRNSDTLAVFILGSASLAMPGADHPMILDFPESAASQPWYDGALYQYYEYQFLQMNANVNWIGISPSEAFPSGPATSYVAGKDTLLVGEDGQSHITTGNMALAILDQLEHPTAIRDRIVVRLEHHHHHH	not soluble
SSESKQDEDSGTSASLSKASKETSCKRQNREGSWDSSLVMKKPKQNQVSTVTDSEVALVSAYLEQRRVRRHSQFLRVNQIQQDSDTTECDSEESNSGASSWKESESDHHLSPANIKRRKSVSRQRDMENYEVRQRPCLHCKAMRTREWLTRHFPPSASVTTPMKGEIQEENLTPGTNTKFSKF	soluble
SLVTRVTLAPGVRVMVAPYPPFLLPLQGRLNCLYMRLRSPVVVPPGDSFSIELKVPFDIAVIASSKGRHTLIDFFPPGGVVPKMAVYGSNVEGLLCRFWRDEWRGPAASARLTIVNNADVQATVSRVVLPRRGLSMFYNPVTGGIAASPIRMSVRDIDSADVWLEEAEPGEGFIEVPLVERDRRLFEALGPLVPGRIAMIWGI	not soluble
MTIKTLQYDDFMLYRERIRDLLVQIYDINFDVSHDYSINESNKKINLLDEYIKTNQAVLIGAVDGEKLVGFIWIYKHEYFGETRMHINQIIVDKEYKRKGIGKRLLEEAEKKAKELGIKVIDLFVSEKNAEAVNFYEKTGFVTERRYLKKILLEHHHHHH	not soluble
MDYKTCPFHLVFLYSINPREPRLRKKIYYMMETESRLVVSHALIMYDYNQEGELPRMHGGYLKRFAKRATKRPDPFFQPTQIHDIDNDVSDMSECEKECPFAVPAQAADDGSLYLQLLDMEFWNDRNRQLHFLVNKPSLIESLGCLNNRVPALPPATTGKAAFVFFIDGLEVDARNLTCDGLVPWSENTSTNPHGITKRPKSAKQALALNREGQLRIWKTPSSHRSDLIEFQLHVYTATLPRCPRLRKKVTYVLKNGHQIGNAMIIYWYTEPGEMPAPVNVSTMSSAQEYSLQRLPPHIREDVLRLLARMTPAEVAKVILEKYGIQVNTKMLYYVRRREIMAATDGIRDAEDDHDPYELKNEMIVSAAAGDFVDDWTTDTAGASAEASEGGSRKKNVHLEEMLDERELQVSHTEEIQQPSSSQQQIQLPYRKAKYQEPKNFGQQSSGLPLSQSGMARGTSRNEALFRIAKNSFGSATDNETFDLLFKMLFEKSEHRLLQIVNHTFGVEIMAGEEMDNGEMHLHMAPDGAIVEEIVEEEVIGTVGDDVNLEEEVHENEPKVYTGEKQINDVLEQVVVEEPNHHDDHPPHELLEEDALVNPDDVIVDPNQLIIHDDDDQRQQNIQ	not soluble
MKMNEIVASTQFPNTIETITKDLKALGVEKGMTIIVHSSLSSIGWISGGAVAVVEALMKVVTEEGTIIMPTQSSDLSDPKHWSRPPVPEDWWQIIRDNVPAFDSRITPTRGMGEIVECFRTYPNVVRSNHPLGSFAAWGKHAVEITMNHSLSMSFGEESPLRKIYDLDGYVLLIGVGYDSNTSVHLSEVRSGACELIQVGAPIIENGERVWKEFVEMDYESEKFVEIGVEFERKGTVKNGKIGNATCRLMKQRDIVDFGTEWFRKKN	not soluble
MGSDKIHHHHHHMEQRKRRLPPLKSLLFLESVVRNQSVTAAADELSITHSAVSKQLSQLEVWIGQPLFLEKRKGMIPTAEIGRVAAVLGNAFDEIQDALDELHPKRAAKPPVLRVIAPATLAMRWLIPKLGEFHTSAGETDVMVRPTHTPDNWLEMEFDIAIRRGGLIPPQFLPQSLFAETLSLVATARVAESYRMGQGDQLSQIGLIDVSTRHGELMNWLKLAGLPVAMARQATKLPHFYIALDAMFAGRGALVVPTYLIEDQLSRGELVELFPQSRIQGPSYQVFVNPASGAGNLAKGFVDWIKRAIPSVAQYAETR	not soluble
MSLTYPVLKGAGYVLIHTPDMIVQNGSTCTVERATNPDSEFLKEVSNHIRSYEDVVNYMPNQVYIGNRRPEELRDLPMPWCEQKIEGTRNGKFGEIMPQDEFIALMQISDAFDLVKLSQEFIDEVKPKIENNYPEIAPFVGKLKGDDIEEGKELVATHIAEGLYHDGKFVGYVKRAHDVDVNLNAHTMFENLVVKASGVLSAIQMLRHSKIDPAEIDYVIECSEEACGDINQRGGGNFAKSIAEIAGLQNATGSDTRGFCAAPTHALIQAAALVKAGIHKNVMVVAGGASAKLGMNAKDHVKKGLPVLEDVVGGFAVLVSENDGVNPVIRTDLTGKHTVGTGSSPQAVMTALITSGLDRANLKITDVDVYSVEMQNPDITKPAGAGDVPEANYKMIGALAVKRGDLEKKELKDFVSNKGLPGWAPTQGHIPSGAPYIGFLIDDLTTGNRNRAMIVGKGSLFLGRMTNLFDGVSFIAERNTGVTEETSGISKDEIKKIIAESMKKLALDMLEEGHHHHHH	soluble
MGSDKIHHHHHHMSKPLNFVMISPHFPANFETFAVRLKECGFNTLGIADTPYEQLSENLRNSLTEYYRVDNMEDYEQVYRAVGYFAHKYGRIDRIESHNEYWLELDAKLRTDFNVPGYKNDDMLAIKTKAQMKEIFRQAGLKVAQGKVFNSDDEARKLAKKLKFPVIIKPNSGVGASDTYKIKSVQELEDFFSYKNAHVEYIMEEFIDGDIITFDGLTDKEGNIVFYSGLEYSECVLDTVENDNDMFYYVPREISTDLIKLGQKCVDAFNVRERFFHFEFFRVKKTGDLMPLEINCRPPGGLTIDMWNYANDFDVFREYANIVKENKFYTNITHPWNVVYISRKANKNYVNAIEDVQQKYSTNIISVQTVPGVFAKIMGEHGILARTETLDQMHEIAQFAQQKA	not soluble
LSITDCRGAPLYEFRYPQQFYATFASVPPLLVHSLLFIENRDLLDPQQPLANPAVDWPRFVKAAWSQVAKMFALPGQSAGGSTLATQLEKYRHSPDGLTQSGSEKLRQMISASVRAYQPGAETLEVRQRVVRDYLNSVPLSAVPGHGEVHGLAEGLRVWFGVDFARTNQLLASGPTDQQGLADKALALREVLSLVIAQRRPSHYLAK	not soluble
MNGGTFTTGKEKERAGIYFNFKTTAQERVSLSERGTVALPVASSWGEAKTFVSISSVEDLNKKVGLSIDDPSLLLLREAKKNAKTVLMYRLTEGVRASADIAEGVKATAVYGGTKGNDIIIRINQNVLDANSFDVTTYMDESEVDKQTVKKAEELTANGYVTFTGTGDLSSTIPLTGSEGDTAAETLNASAGIRLSGGTDKAPVNSDYTDFLAAAETESFDVIALPVAEGDQLKATFAAFIKRLRDGQGQKVQGVTANYAGDYEGIINVTEGVLLEDGTEVTPDKATAWVAGASAGATFNQSLTFVEYEGAVDVLHRLDHDTIVERLGKGEFLFTFDARDKSVSVEKDINSLVTFTAEKNKKFAKNKIVRVLDAVNNDLTRELKALIKSRKGSGSDIPASEDGLQYVKTMITQYMTTLQDAGGITGFDSDEDITISMNEDRDGFLIDLLYSLSTQQKNSTLMWRLEHHHHHH	soluble
MRKAAVIGGSLGGLFAANLLLRAGWDVHVHERVHDELDGRGAGIVTHPELLDVLRRIGVAPTESIGIEVARRVTLDLDGSVLASRALPQLLTAWGRLFSILRTRFPAERYHRGQALESLEQDERRALLRFADGARAEVDLVVAADGLRSTLRQALLPQARPAYAGYVAWRGLVDEASLSERTRRELCPYFAFGLPAHEQMIAYPVAGTGSGAQDAARRFNFVWYRPADEHTTFRDMVTDAQGQAWMDGIPPPLIRPEIVAQARQAAAQVLAPQFGEVVAKTANLFFQPIFDLESPRLALGRVALLGDAAFVARPHCGMGVTKAAGDARALAYALAGTPDIGAALQAYEDERLPFGKFIVGHARDLGRYMQAQLRDDAEREMAERYRTPEAIMRETAVAPAWRLEHHHHHH	not soluble
MAREKVSLTEFNLFSEGILEQGSSVRALEWAPIVPFADRAGFEQESRKALKKDFAIIELLANGNTIPAQSRTQYAPLYYIYPQYNNQEALGLDVYSNPTHILSMQVVVNSKAVIASAPITLVQDELAKPGMLFSKAVFLPPEVNELASNEAQQKLSIIKEGKLLGFVVAVAQFDSFFEQLAQQKEQEVSFFIQDVSGSQPLSLFGQAFPTVNRHVDTITIEVFSRLWQIDIALEHHHHHH	not soluble
MSLHDYCLPCPTSLSGIAEVNPMSKPLVRWPINPLRTAVIVVDMQKVFCEPTGALYVKSTADIVQPIQKLLQAARAAQVMVIYLRHIVRGDGSDTGRMRDLYPNVDQILARHDPDVEVIEALAPQSDDVIVDKLFYSGFHNTDLDTVLRARDVDTIIVCGTVTNVCCETTIRDGVHREYKVIALSDANAAMDYPDVGFGAVSAADVQRISLTTIAYEFGEVTTTAEVIRREGHHHHHH	not soluble
